For orientation: Kd means the equilibrium constant for the complex coming apart.

Experimental findings from article PMC9299196, “Profiling the specificity of clonally expanded plasma cells during chronic viral infection by single‐cell analysis” (European Journal of Immunology, 2021) are described below.

Positions count from the first letter of the chain named. Read-outs that look alike come from different tables or passages of the source.

Assay [1] deals with T1, LCMV clone 13 nucleocapsid protein (NP), purified recombinant (LCMV clone 13 (stand-in: strain …, UniProt P09992, strain)).
For assay [2], the target named is T1, LCMV clone 13 nucleocapsid protein …. The experiment in a line: ELISA. Particulars: one partner purified. In general terms: ELISA stands for enzyme-linked immunosorbent assay.
Assay [3] concerns the target T2, LCMV clone 13 nucleocapsid protein (NP), purified recombinant (Lymphocytic choriomeningitis virus …, UniProt P09992 1-558).
T2 chain: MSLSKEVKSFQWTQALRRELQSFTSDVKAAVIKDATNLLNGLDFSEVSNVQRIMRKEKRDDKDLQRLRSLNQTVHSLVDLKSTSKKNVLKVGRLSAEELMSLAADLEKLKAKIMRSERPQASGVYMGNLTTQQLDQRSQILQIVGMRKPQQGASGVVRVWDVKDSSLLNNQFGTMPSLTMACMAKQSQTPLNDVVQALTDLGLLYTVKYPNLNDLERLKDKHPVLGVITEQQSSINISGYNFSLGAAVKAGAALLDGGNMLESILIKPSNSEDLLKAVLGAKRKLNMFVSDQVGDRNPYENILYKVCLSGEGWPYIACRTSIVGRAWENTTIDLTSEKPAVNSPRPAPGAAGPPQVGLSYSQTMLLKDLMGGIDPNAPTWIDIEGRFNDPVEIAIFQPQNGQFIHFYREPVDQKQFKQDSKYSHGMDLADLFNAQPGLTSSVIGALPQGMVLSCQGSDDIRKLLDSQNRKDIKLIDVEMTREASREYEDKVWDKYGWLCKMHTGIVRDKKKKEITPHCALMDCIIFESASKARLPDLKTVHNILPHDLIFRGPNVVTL
The experiment in a line: BLI.

B1: Rank2.4 (antibody, V domains shown)
VH: EVQLQQSGPELVKPGASVKMSCKASGYTFTDYNMHWVKQSHGKSLEWFGYIDPNNGGIRYNQLFKGKATLTVNKTSRIAYMELRSLTSEDSAVYYCAREGGYWYFDVWGTGTTVIVSS
VL: DIVMTQSHKFKSTPVGDRVSITCKASQDVSTAVAWYQQKPGQSPKLLIYWASTRHTGVPDRFTGSGSGTDYTLTISSVQAEDLALYYCQQHYSTPFTFGSGTKLEIK
As for B1, the binding result in assay [1] is reported as “binds”.

B2: NP-specific, second most expanded IgG clone, most expanded antibody variant (antibody, V domains shown)
VH: B1 VH with F48I, D52N, I58T, R59S, L63K, T75S, R77S, I78T, I115T
VL: B1 VL with K11M, P14S
notes: also called second most expanded clone; previously tested variant
Consider B2, for which the binding result in assay [2] is “binds”. Besides, the Kd in assay [3] is 470 nM.

B3: third additionally expressed variant of the second most expanded IgG clone (single-reactive) (antibody, V domains shown)
VH: B1 VH with T30I, F48I, D52N, I58T, R59N, L63K, T75S, R77S, I78T, I115T
VL: B1 VL with K11M, P14S, K103E
notes: also called one of the three tested variants; single-reactive antibody
As to B3, the binding result in assay [2] is “binds”. For the same molecule, the equilibrium dissociation constant (Kd) in assay [3] turned out to be 370 nM.

B4: Rank2.5 (antibody, V domains shown)
VH: B1 VH with F48I, D52N, I58S, L63K, V72G, T75S, R77S, I78T, I115T
VL: B1 VL with K11M, P14S, V33I
Regarding B4, the binding result in assay [1] is “binds”.

B5: NP-specific IgG clone other than the second most expanded clone (antibody, V domains shown)
VH: QVQLQQSDAELVKPGASVKISCKVSGYTFTDHTIHWMKQRPEQGLEWIGYIYPRDGSTKYNEKFKGKATLTADKSSSTAYMQLNSLTSEDSAVYFCARGGYYGFYYFDYWGQGTTLTVSS
VL: DIVLTQSPASLAVSLGQRATISCRASESVEYYGTSLMQWYQQKPGQPPKLLIYAASNVESGVPARFSGSGSGTDFSLNIHPVEEDDIAMYFCQQSWKVPYTFGGGTKLEIK
notes: also called one of the two NP-specific clones
As to B5, in assay [2], the binding result is “binds”.
